Binding result and Kd data for four molecules are collected here from US20220281931A1 (published 2022).

The labels stand for the following.
B1: BCL6^241-260 peptide (peptide)
peptide: EYSRPTLEVSPNVCHSNIYS
notes: also called V×P-containing polypeptide
B2: V5SIAH1^C44S (enzyme, UniProt Q8IUQ4 1-282, looked up)
chain: MSRQTATALPTGTSKCPPSQRVPALTGTTASNNDLASLFECPVSFDYVLPPILQCQSGHLVCSNCRPKLTCCPTCRGPLGSIRNLAMEKVANSVLFPCKYASSGCEITLPHTEKADHEELCEFRPYSCPCPGASCKWQGSLDAVMPHLMHQHKSITTLQGEDIVFLATDINLPGAVDWVMMQSCFGFHFMLVLEKQEKYDGHQQFFAIVQLIGTRKQAENFAYRLELNGHRRRLTWEATPRSIHEGIATAIMNSDCLVFDTSIAQLFAENGNLGINVTISMC
notes: Expressed from pLEX_307 in HEK293T Cas9 cells; also called V5SIAH1^44C>S; V5SIAH1^44>S; not shown: V5 tag
B3: biotinylated Strep II Avi-tagged SIAH1^SBD (enzyme, human, UniProt Q8IUQ4 90-282, looked up)
chain: VANSVLFPCKYASSGCEITLPHTEKADHEELCEFRPYSCPCPGASCKWQGSLDAVMPHLMHQHKSITTLQGEDIVFLATDINLPGAVDWVMMQSCFGFHFMLVLEKQEKYDGHQQFFAIVQLIGTRKQAENFAYRLELNGHRRRLTWEATPRSIHEGIATAIMNSDCLVFDTSIAQLFAENGNLGINVTISMC
modifications: biotinylated (Avi tag)
notes: range 90-282; Captured through terbium-coupled streptavidin in TR-FRET; also called BiotinSIAH1^SBD; not shown: N-terminal Strep II-Avi tag
B4: SIAH1^SBD (tag-cleaved) (enzyme, human, UniProt Q8IUQ4 90-282, looked up)
chain: B3 chain
notes: range 90-282; also called recombinant SIAH1^SBD

Assay [1] has as its target B4. Put plainly: isothermal titration calorimetry, peptide injected into SIAH1^SBD. As to the method: (§1) All calorimetric experiments were carried out using an Affinity ITC from TA Instruments (New Castle, Del.) equipped with auto sampler in a buffer containing 20 mM HEPES, pH 7.5, 150 mM NaCl, and 0.5 mM TCEP at 25° C. For the BCL6-SIAH1 interaction, 25 μM BCL6⁵⁻³⁶⁰ protein solution in the calorimetric cell was titrated by injecting 2 μL of 250 μM SIAH1^SBD protein solution in 200 sec intervals with stirring speed at 125 rpm. […] Resulting isotherm was fitted with a single site model to yield thermodynamic parameters of DH, DS, stoichiometry, and Kd using NanoAnalyze software (TA instruments).
(In general: ITC needs no label: the signal is the heat of the interaction.)

Assay [2] addresses T1, eGFPBCL6^1-275 (human, UniProt P41182 1-275).
T1 construct: Expressed in HEK293T Cas9 cells; also called eGFPBCL6^275; minimal degradable construct; not shown: eGFP
Kind of assay: immunofluorescence colocalization in HEK293T cells, 1 µM BI-3802.

Assay [3] addresses T2, eGFPBCL6^FL 249-251 VSP>GSA (human, UniProt P41182 1-706).
T2 construct: Expressed in HEK293T Cas9 cells; also called BCL6 V×P motif mutant; not shown: eGFP
Kind of assay: co-immunoprecipitation (GFP-trap) from HEK293T cells, BI-3802 or DMSO. As to the method: (§2) The cells were harvested and lysed in RIPA lysis buffer (ThermoFisher Scientific, #89900) infused with protease inhibitor (ThermoFisher Scientific, Halt™ Protease Inhibitor Cocktail #78438) for 30 min at 4° C. […] Lysates were cleared by centrifugation (17,000 g, 20 min, 4° C.). 20 μL of pre-cleaned GFP-trap magnetic agarose beads (Chromotek, gmta-20) was added to the lysates. The beads-lysate mix was incubated at 4° C. for 30 min. Proteins were eluted in 2×sample buffer at 98° C. Eluates and whole-cell lysates were run on a polyacrylamide gel, transferred to a nitrocellulose membrane and immunoblotted for eGFP and V5.

Assay [4] deals with T3, eGFPBCL6^1-250 (human, UniProt P41182 1-250).
T3 construct: Expressed in HEK293T Cas9 cells; also called eGFPBCL6^250; non-degradable eGFPBCL6^1-250 construct; not shown: eGFP
The description is as above. The procedure:
as §2

Assay [5] addresses T4, BodipyFL-labeled BCL6^5-360 (human, UniProt P41182 5-360, BodipyFL label (site not stated)).
T4 construct: also called BodipyBCL6^5-360; BodipyFL-BCL6^5-360
Put plainly: TR-FRET, apparent KD; BodipyFL-BCL6^5-360 titrated to biotinylated SIAH1^SBD in the presence of 2 µM BI-3802. The procedure: Titrations of BodipyFL-BCL6⁵⁻³⁶⁰ were carried out by mixing 400 nM biotinylated Strep II Avi-tagged SIAH1^SBD, 2 μM compounds or equivalent volume of DMSO, and 4 nM terbium-coupled streptavidin in the same assay buffer. After dispensing the assay mixture, increasing concentration of BodipyFL-BCL6⁵⁻³⁶⁰ was added to the SIAH1 mixture in a […] (7.5 μL each, total 15 μL assay volume). The 520/490 nm ratios were measured in as described above and plotted to calculate the KD^APP values using dose-response analysis standard four parameter log-logistic curves using the dr4pl R package.
Background: Time-resolved FRET reads energy transfer from a long-lived donor to a nearby acceptor.

For assay [6], the target named is T5, BCL6^5-360 (ITC) (human, UniProt P41182 5-360).
T5 construct: also called BCL6^5-360 protein
Kind of assay: isothermal titration calorimetry, SIAH1^SBD injected into BCL6^5-360. The procedure:
as §1

On to B1, for which the binding result in assay [1] is “binds”.

Turning to B2, the binding result in assay [2] is listed as “binds”; in assay [3], “no binding”; in assay [4], “no binding”. In the case of B3, the Kd in assay [5] stood at 200 nM. Turning to B4, in assay [6], the binding result is “binds”.
